Results published in patent publication US20260001928A1 (CORTERIA PHARMACEUTICALS, priority 2022, published 2026).
*1 amine or outer side, *2 acyl side, *3 side chain or, on linkers, in order; H or OH if unused. Where no end group is shown, it is not given here. Side-chain parts run from the residue outwards. [ ]: non-standard residue; d: D form. The star is where a group is joined. C18 diacid = O=C(O)CCCCCCCCCCCCCCCCC(=O)*; C16 diacid = O=C(O)CCCCCCCCCCCCCCC(=O)*; γGlu = O=C(O)[C@H](CCC(=O)[*:2])N[*:1]; Pentanoyl = CCCCC(=O)*; AEEA = NCCOCCOCC(=O)O; Propionyl = CCC(=O)*; Butyryl = CCCC(=O)*

T1: CRF1R receptor (UniProt P34998 24-415, limits assumed)
T1 sequence (looked up): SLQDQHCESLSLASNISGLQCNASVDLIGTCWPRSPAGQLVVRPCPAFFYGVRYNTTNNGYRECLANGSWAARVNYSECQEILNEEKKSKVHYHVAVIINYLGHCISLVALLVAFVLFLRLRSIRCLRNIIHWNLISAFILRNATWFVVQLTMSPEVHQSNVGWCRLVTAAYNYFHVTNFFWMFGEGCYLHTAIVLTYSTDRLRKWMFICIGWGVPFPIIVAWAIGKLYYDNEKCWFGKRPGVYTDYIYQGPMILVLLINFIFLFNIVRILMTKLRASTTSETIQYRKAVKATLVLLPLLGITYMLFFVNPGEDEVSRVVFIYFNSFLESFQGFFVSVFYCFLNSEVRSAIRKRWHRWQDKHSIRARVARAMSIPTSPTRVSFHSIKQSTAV


How the values were obtained:
[1] = target: human corticotropin-releasing factor 2a (CRF2a receptor) (human), Q13324; experiment: cell-based or functional assay
Sequence of human corticotropin-releasing factor 2a (CRF2a receptor) (human), Q13324 (Q13324 20-411): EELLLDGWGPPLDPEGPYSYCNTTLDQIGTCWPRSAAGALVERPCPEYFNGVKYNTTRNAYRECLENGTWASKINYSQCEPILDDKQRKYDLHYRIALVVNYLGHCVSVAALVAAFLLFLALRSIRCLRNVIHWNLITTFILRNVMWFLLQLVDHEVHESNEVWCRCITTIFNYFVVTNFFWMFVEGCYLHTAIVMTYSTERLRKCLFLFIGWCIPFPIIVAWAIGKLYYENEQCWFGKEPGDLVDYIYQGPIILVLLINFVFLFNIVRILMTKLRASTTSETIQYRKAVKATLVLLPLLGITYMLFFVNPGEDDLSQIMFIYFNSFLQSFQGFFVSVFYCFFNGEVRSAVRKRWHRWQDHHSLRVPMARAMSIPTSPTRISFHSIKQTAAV

CRF1R receptor = target: T1, CRF1R receptor; experiment: cell-based or functional assay

Binder	EC50 [nM] (cAMP) [1]	Emax (% I) (CRF1R receptor)
Ac-VLSLD[dV]PIKLK([AEEA-AEEA-γGlu-C18 diacid])KILLEQEKQKKQREQAETNKQILAQV-NH2 (SMILES CC[C@H](C)[C@H](NC(=O)[C@H](CCC(N)=O)NC(=O)[C@H](CCCCN)NC(=O)[C@H](CC(N)=O)NC(=O)[C@@H](NC(=O)[C@H](CCC(=O)O)NC(=O)[C@H](C)NC(=O)[C@H](CCC(N)=O)NC(=O)[C@H](CCC(=O)O)NC(=O)[C@H](CCCNC(=N)N)NC(=O)[C@H](CCC(N)=O)NC(=O)[C@H](CCCCN)NC(=O)[C@H](CCCCN)NC(=O)[C@H](CCC(N)=O)NC(=O)[C@H](CCCCN)NC(=O)[C@H](CCC(=O)O)NC(=O)[C@H](CCC(N)=O)NC(=O)[C@H](CCC(=O)O)NC(=O)[C@H](CC(C)C)NC(=O)[C@H](CC(C)C)NC(=O)[C@@H](NC(=O)[C@H](CCCCN)NC(=O)[C@H](CCCCNC(=O)COCCOCCNC(=O)COCCOCCNC(=O)CC[C@H](NC(=O)CCCCCCCCCCCCCCCCC(=O)O)C(=O)O)NC(=O)[C@H](CC(C)C)NC(=O)[C@H](CCCCN)NC(=O)[C@@H](NC(=O)[C@@H]1CCCN1C(=O)[C@H](NC(=O)[C@H](CC(=O)O)NC(=O)[C@H](CC(C)C)NC(=O)[C@H](CO)NC(=O)[C@H](CC(C)C)NC(=O)[C@@H](NC(C)=O)C(C)C)C(C)C)[C@@H](C)CC)[C@@H](C)CC)[C@@H](C)O)C(=O)N[C@@H](CC(C)C)C(=O)N[C@@H](C)C(=O)N[C@@H](CCC(N)=O)C(=O)N[C@H](C(N)=O)C(C)C) [SEQ ID NO 92]	2.3 nM	5%
VLSLD[dV]PIKLK([AEEA-AEEA-γGlu-C18 diacid])KILLEQEKQKKQREQAETNKQILAQV-NH2 (N-terminus assumed; SMILES CC[C@H](C)[C@H](NC(=O)[C@H](CCC(N)=O)NC(=O)[C@H](CCCCN)NC(=O)[C@H](CC(N)=O)NC(=O)[C@@H](NC(=O)[C@H](CCC(=O)O)NC(=O)[C@H](C)NC(=O)[C@H](CCC(N)=O)NC(=O)[C@H](CCC(=O)O)NC(=O)[C@H](CCCNC(=N)N)NC(=O)[C@H](CCC(N)=O)NC(=O)[C@H](CCCCN)NC(=O)[C@H](CCCCN)NC(=O)[C@H](CCC(N)=O)NC(=O)[C@H](CCCCN)NC(=O)[C@H](CCC(=O)O)NC(=O)[C@H](CCC(N)=O)NC(=O)[C@H](CCC(=O)O)NC(=O)[C@H](CC(C)C)NC(=O)[C@H](CC(C)C)NC(=O)[C@@H](NC(=O)[C@H](CCCCN)NC(=O)[C@H](CCCCNC(=O)COCCOCCNC(=O)COCCOCCNC(=O)CC[C@H](NC(=O)CCCCCCCCCCCCCCCCC(=O)O)C(=O)O)NC(=O)[C@H](CC(C)C)NC(=O)[C@H](CCCCN)NC(=O)[C@@H](NC(=O)[C@@H]1CCCN1C(=O)[C@H](NC(=O)[C@H](CC(=O)O)NC(=O)[C@H](CC(C)C)NC(=O)[C@H](CO)NC(=O)[C@H](CC(C)C)NC(=O)[C@@H](N)C(C)C)C(C)C)[C@@H](C)CC)[C@@H](C)CC)[C@@H](C)O)C(=O)N[C@@H](CC(C)C)C(=O)N[C@@H](C)C(=O)N[C@@H](CCC(N)=O)C(=O)N[C@H](C(N)=O)C(C)C) [SEQ ID NO 93]	5.08 nM	6%
Ac-VLSLD[dV]PIKLK([γGlu-C16 diacid])KILLEQEKQKKQREQAETNKQILAQV-NH2 (SMILES CC[C@H](C)[C@H](NC(=O)[C@H](CCC(N)=O)NC(=O)[C@H](CCCCN)NC(=O)[C@H](CC(N)=O)NC(=O)[C@@H](NC(=O)[C@H](CCC(=O)O)NC(=O)[C@H](C)NC(=O)[C@H](CCC(N)=O)NC(=O)[C@H](CCC(=O)O)NC(=O)[C@H](CCCNC(=N)N)NC(=O)[C@H](CCC(N)=O)NC(=O)[C@H](CCCCN)NC(=O)[C@H](CCCCN)NC(=O)[C@H](CCC(N)=O)NC(=O)[C@H](CCCCN)NC(=O)[C@H](CCC(=O)O)NC(=O)[C@H](CCC(N)=O)NC(=O)[C@H](CCC(=O)O)NC(=O)[C@H](CC(C)C)NC(=O)[C@H](CC(C)C)NC(=O)[C@@H](NC(=O)[C@H](CCCCN)NC(=O)[C@H](CCCCNC(=O)CC[C@H](NC(=O)CCCCCCCCCCCCCCC(=O)O)C(=O)O)NC(=O)[C@H](CC(C)C)NC(=O)[C@H](CCCCN)NC(=O)[C@@H](NC(=O)[C@@H]1CCCN1C(=O)[C@H](NC(=O)[C@H](CC(=O)O)NC(=O)[C@H](CC(C)C)NC(=O)[C@H](CO)NC(=O)[C@H](CC(C)C)NC(=O)[C@@H](NC(C)=O)C(C)C)C(C)C)[C@@H](C)CC)[C@@H](C)CC)[C@@H](C)O)C(=O)N[C@@H](CC(C)C)C(=O)N[C@@H](C)C(=O)N[C@@H](CCC(N)=O)C(=O)N[C@H](C(N)=O)C(C)C) [SEQ ID NO 33]	0.47 nM	13%
Propionyl-VLSLDVPIKLK([AEEA-AEEA-γGlu-C18 diacid])KILLEQEKQKKQREQAETNKQILAQV-NH2 (SMILES CCC(=O)N[C@H](C(=O)N[C@@H](CC(C)C)C(=O)N[C@@H](CO)C(=O)N[C@@H](CC(C)C)C(=O)N[C@@H](CC(=O)O)C(=O)N[C@H](C(=O)N1CCC[C@H]1C(=O)N[C@H](C(=O)N[C@@H](CCCCN)C(=O)N[C@@H](CC(C)C)C(=O)N[C@@H](CCCCNC(=O)COCCOCCNC(=O)COCCOCCNC(=O)CC[C@H](NC(=O)CCCCCCCCCCCCCCCCC(=O)O)C(=O)O)C(=O)N[C@@H](CCCCN)C(=O)N[C@H](C(=O)N[C@@H](CC(C)C)C(=O)N[C@@H](CC(C)C)C(=O)N[C@@H](CCC(=O)O)C(=O)N[C@@H](CCC(N)=O)C(=O)N[C@@H](CCC(=O)O)C(=O)N[C@@H](CCCCN)C(=O)N[C@@H](CCC(N)=O)C(=O)N[C@@H](CCCCN)C(=O)N[C@@H](CCCCN)C(=O)N[C@@H](CCC(N)=O)C(=O)N[C@@H](CCCNC(=N)N)C(=O)N[C@@H](CCC(=O)O)C(=O)N[C@@H](CCC(N)=O)C(=O)N[C@@H](C)C(=O)N[C@@H](CCC(=O)O)C(=O)N[C@H](C(=O)N[C@@H](CC(N)=O)C(=O)N[C@@H](CCCCN)C(=O)N[C@@H](CCC(N)=O)C(=O)N[C@H](C(=O)N[C@@H](CC(C)C)C(=O)N[C@@H](C)C(=O)N[C@@H](CCC(N)=O)C(=O)N[C@H](C(N)=O)C(C)C)[C@@H](C)CC)[C@@H](C)O)[C@@H](C)CC)[C@@H](C)CC)C(C)C)C(C)C) [SEQ ID NO 94]	1.48 nM	0%
Pentanoyl-VLSLDVPIKLK([AEEA-AEEA-γGlu-C18 diacid])KILLEQEKQKKQREQAETNKQILAQV-NH2 (SMILES CCCCC(=O)N[C@H](C(=O)N[C@@H](CC(C)C)C(=O)N[C@@H](CO)C(=O)N[C@@H](CC(C)C)C(=O)N[C@@H](CC(=O)O)C(=O)N[C@H](C(=O)N1CCC[C@H]1C(=O)N[C@H](C(=O)N[C@@H](CCCCN)C(=O)N[C@@H](CC(C)C)C(=O)N[C@@H](CCCCNC(=O)COCCOCCNC(=O)COCCOCCNC(=O)CC[C@H](NC(=O)CCCCCCCCCCCCCCCCC(=O)O)C(=O)O)C(=O)N[C@@H](CCCCN)C(=O)N[C@H](C(=O)N[C@@H](CC(C)C)C(=O)N[C@@H](CC(C)C)C(=O)N[C@@H](CCC(=O)O)C(=O)N[C@@H](CCC(N)=O)C(=O)N[C@@H](CCC(=O)O)C(=O)N[C@@H](CCCCN)C(=O)N[C@@H](CCC(N)=O)C(=O)N[C@@H](CCCCN)C(=O)N[C@@H](CCCCN)C(=O)N[C@@H](CCC(N)=O)C(=O)N[C@@H](CCCNC(=N)N)C(=O)N[C@@H](CCC(=O)O)C(=O)N[C@@H](CCC(N)=O)C(=O)N[C@@H](C)C(=O)N[C@@H](CCC(=O)O)C(=O)N[C@H](C(=O)N[C@@H](CC(N)=O)C(=O)N[C@@H](CCCCN)C(=O)N[C@@H](CCC(N)=O)C(=O)N[C@H](C(=O)N[C@@H](CC(C)C)C(=O)N[C@@H](C)C(=O)N[C@@H](CCC(N)=O)C(=O)N[C@H](C(N)=O)C(C)C)[C@@H](C)CC)[C@@H](C)O)[C@@H](C)CC)[C@@H](C)CC)C(C)C)C(C)C) [SEQ ID NO 96]	0.49 nM	4%
Butyryl-VLSLDVPIKLK([AEEA-AEEA-γGlu-C18 diacid])KILLEQEKQKKQREQAETNKQILAQV-NH2 (SMILES CCCC(=O)N[C@H](C(=O)N[C@@H](CC(C)C)C(=O)N[C@@H](CO)C(=O)N[C@@H](CC(C)C)C(=O)N[C@@H](CC(=O)O)C(=O)N[C@H](C(=O)N1CCC[C@H]1C(=O)N[C@H](C(=O)N[C@@H](CCCCN)C(=O)N[C@@H](CC(C)C)C(=O)N[C@@H](CCCCNC(=O)COCCOCCNC(=O)COCCOCCNC(=O)CC[C@H](NC(=O)CCCCCCCCCCCCCCCCC(=O)O)C(=O)O)C(=O)N[C@@H](CCCCN)C(=O)N[C@H](C(=O)N[C@@H](CC(C)C)C(=O)N[C@@H](CC(C)C)C(=O)N[C@@H](CCC(=O)O)C(=O)N[C@@H](CCC(N)=O)C(=O)N[C@@H](CCC(=O)O)C(=O)N[C@@H](CCCCN)C(=O)N[C@@H](CCC(N)=O)C(=O)N[C@@H](CCCCN)C(=O)N[C@@H](CCCCN)C(=O)N[C@@H](CCC(N)=O)C(=O)N[C@@H](CCCNC(=N)N)C(=O)N[C@@H](CCC(=O)O)C(=O)N[C@@H](CCC(N)=O)C(=O)N[C@@H](C)C(=O)N[C@@H](CCC(=O)O)C(=O)N[C@H](C(=O)N[C@@H](CC(N)=O)C(=O)N[C@@H](CCCCN)C(=O)N[C@@H](CCC(N)=O)C(=O)N[C@H](C(=O)N[C@@H](CC(C)C)C(=O)N[C@@H](C)C(=O)N[C@@H](CCC(N)=O)C(=O)N[C@H](C(N)=O)C(C)C)[C@@H](C)CC)[C@@H](C)O)[C@@H](C)CC)[C@@H](C)CC)C(C)C)C(C)C) [SEQ ID NO 95]	0.76 nM	5%
